Data published in patent publication US20230143604A1, “QW DOSING OF GIP RECEPTOR AGONIST PEPTIDE COMPOUNDS AND USES THEREOF” (TAKEDA PHARMACEUTICAL COMPANY LIMITED, priority 2020, published 2023).
Non-standard residues stand in square brackets, D forms with d. Groups on a side chain read outwards from the residue. No end group written: not given here. *: point of attachment. 2OEGgEgE‑C18 diacid = O=C(O)CCCCCCCCCCCCCCCCC(=O)N[C@@H](CCC(=O)N[C@@H](CCC(=O)NCCOCCOCC(=O)NCCOCCOCC(=O)*)C(=O)O)C(=O)O; C20 diacid = O=C(O)CCCCCCCCCCCCCCCCCCC(=O)*; NMeY = CN[C@@H](Cc1ccc(O)cc1)C(=O)O; Aib = CC(C)(N)C(=O)O

Key:
[1] = molecular target: full-length human GLP-1R with an N-terminal FLAG tag (human, UniProt P43220 24-463); experiment: cell-based or functional assay
[2] = molecular target: T1, full-length human GIPR with an N-terminal FLAG tag (human, UniProt P48546 22-466); experiment: cell-based or functional assay
T1 sequence (looked up): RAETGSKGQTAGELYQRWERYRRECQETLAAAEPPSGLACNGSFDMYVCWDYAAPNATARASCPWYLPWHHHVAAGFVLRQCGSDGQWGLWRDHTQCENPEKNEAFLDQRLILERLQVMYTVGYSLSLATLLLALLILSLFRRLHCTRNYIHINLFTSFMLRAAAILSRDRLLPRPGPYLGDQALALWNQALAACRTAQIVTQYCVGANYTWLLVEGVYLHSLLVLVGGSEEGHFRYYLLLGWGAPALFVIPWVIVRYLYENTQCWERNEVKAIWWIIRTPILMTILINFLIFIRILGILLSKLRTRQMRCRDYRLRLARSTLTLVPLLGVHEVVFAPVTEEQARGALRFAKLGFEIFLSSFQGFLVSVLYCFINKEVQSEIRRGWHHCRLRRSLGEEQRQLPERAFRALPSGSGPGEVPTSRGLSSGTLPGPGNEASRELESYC

B1: Compound No. 61 (peptide)
peptide: [NMeY][Aib]EGTFISDYSIALDR[Aib]AQ[Aib]DFVNWLLAQK(2OEGgEgE‑C18 diacid)G-OH
modifications: N-terminus assumed
SMILES: CC[C@H](C)[C@H](NC(=O)[C@H](CO)NC(=O)[C@H](Cc1ccc(O)cc1)NC(=O)[C@H](CC(=O)O)NC(=O)[C@H](CO)NC(=O)[C@@H](NC(=O)[C@H](Cc1ccccc1)NC(=O)[C@@H](NC(=O)CNC(=O)[C@H](CCC(=O)O)NC(=O)C(C)(C)NC(=O)[C@H](Cc1ccc(O)cc1)NC)[C@@H](C)O)[C@@H](C)CC)C(=O)N[C@@H](C)C(=O)N[C@@H](CC(C)C)C(=O)N[C@@H](CC(=O)O)C(=O)N[C@@H](CCCNC(=N)N)C(=O)NC(C)(C)C(=O)N[C@@H](C)C(=O)N[C@@H](CCC(N)=O)C(=O)NC(C)(C)C(=O)N[C@@H](CC(=O)O)C(=O)N[C@@H](Cc1ccccc1)C(=O)N[C@H](C(=O)N[C@@H](CC(N)=O)C(=O)N[C@@H](Cc1c[nH]c2ccccc12)C(=O)N[C@@H](CC(C)C)C(=O)N[C@@H](CC(C)C)C(=O)N[C@@H](C)C(=O)N[C@@H](CCC(N)=O)C(=O)N[C@@H](CCCCNC(=O)COCCOCCNC(=O)COCCOCCNC(=O)CC[C@H](NC(=O)CC[C@H](NC(=O)CCCCCCCCCCCCCCCCC(=O)O)C(=O)O)C(=O)O)C(=O)NCC(=O)O)C(C)C
[1]
  Human GLP1R cAMP EC50, HEK293T: > 1000 nM
[2]
  Human GIPR cAMP EC50, HEK293T: 0.0007 nM

## [NMeY][Aib]EGTFISDYSIALDR[Aib]AQ[Aib]DFVNWLLAK(2OEGgEgE‑C18 diacid)RPSSGAPPPS-NH2 [Compound No. 58]
[1]
  Human GLP1R cAMP EC50, HEK293T: > 1000 nM
[2]
  Human GIPR cAMP EC50, HEK293T: 0.0004 nM

## YXEGTFISDYSIAXDSXAQXDFVNWLLAQSG (N-methyl Tyr 1; Aib at 2,17,20; Lys(G5-C18 diacid) at 14; C-terminal OH) [Compound No. 60]
[1]
  Human GLP1R cAMP EC50, HEK293T: 100 nM
[2]
  Human GIPR cAMP EC50, HEK293T: 0.0003 nM

## YXEGTFISDYSIAXDRXAQXDFVNWLLAQRG (N-methyl Tyr 1; Aib at 2,17,20; Lys(G5-C18 diacid) at 14; C-terminal OH) [Compound No. 63]
[1]
  Human GLP1R cAMP EC50, HEK293T: 75.9 nM
[2]
  Human GIPR cAMP EC50, HEK293T: 0.0002 nM

## YXEGTFISDYSIXLDSXAQXDFVNWLLAQRG (N-methyl Tyr 1; Aib at 2,13,20; Lys(G6-C18 diacid) at 17; C-terminal OH) [Compound No. 64]
[1]
  Human GLP1R cAMP EC50, HEK293T: 110 nM
[2]
  Human GIPR cAMP EC50, HEK293T: 0.0002 nM

## [NMeY][Aib]EGTFISDYSIALDRIHQQNFVNWLLAQK-NH2 (not fully specified (residue 30)) [Compound No. 5]
[1]
  Human GLP1R cAMP EC50, HEK293T: 123 nM
[2]
  Human GIPR cAMP EC50, HEK293T: 0.0007 nM

B2: Compound No. 62 (peptide)
peptide: [NMeY][Aib]EGTFISDYSI[Aib]LDR[Aib]AQ[Aib]DFVNWLLAK(2OEGgEgE‑C18 diacid)RG-OH
modifications: N-terminus assumed
SMILES: CC[C@H](C)[C@H](NC(=O)[C@H](Cc1ccccc1)NC(=O)[C@@H](NC(=O)CNC(=O)[C@H](CCC(=O)O)NC(=O)C(C)(C)NC(=O)[C@H](Cc1ccc(O)cc1)NC)[C@@H](C)O)C(=O)N[C@@H](CO)C(=O)N[C@@H](CC(=O)O)C(=O)N[C@@H](Cc1ccc(O)cc1)C(=O)N[C@@H](CO)C(=O)N[C@H](C(=O)NC(C)(C)C(=O)N[C@@H](CC(C)C)C(=O)N[C@@H](CC(=O)O)C(=O)N[C@@H](CCCNC(=N)N)C(=O)NC(C)(C)C(=O)N[C@@H](C)C(=O)N[C@@H](CCC(N)=O)C(=O)NC(C)(C)C(=O)N[C@@H](CC(=O)O)C(=O)N[C@@H](Cc1ccccc1)C(=O)N[C@H](C(=O)N[C@@H](CC(N)=O)C(=O)N[C@@H](Cc1c[nH]c2ccccc12)C(=O)N[C@@H](CC(C)C)C(=O)N[C@@H](CC(C)C)C(=O)N[C@@H](C)C(=O)N[C@@H](CCCCNC(=O)COCCOCCNC(=O)COCCOCCNC(=O)CC[C@H](NC(=O)CC[C@H](NC(=O)CCCCCCCCCCCCCCCCC(=O)O)C(=O)O)C(=O)O)C(=O)N[C@@H](CCCNC(=N)N)C(=O)NCC(=O)O)C(C)C)[C@@H](C)CC
[1]
  Human GLP1R cAMP EC50, HEK293T: > 1000 nM
[2]
  Human GIPR cAMP EC50, HEK293T: 0.0004 nM

## [NMeY][Aib]EGTFISDYSIALDR[Aib]AQ[Aib]NFVNWLLAK(2OEGgEgE‑C18 diacid)SPSSGAPPPS-NH2 [Compound No. 59]
[1]
  Human GLP1R cAMP EC50, HEK293T: > 1000 nM
[2]
  Human GIPR cAMP EC50, HEK293T: 0.0005 nM

B3: Compound No. 57 (peptide)
peptide: [NMeY][Aib]EGTFISDYSIALDR[Aib]AQ[Aib]DFVNWLLAK(2OEGgEgE‑C18 diacid)RGGGGS-NH2
modifications: N-terminus assumed
SMILES: CC[C@H](C)[C@H](NC(=O)[C@H](CO)NC(=O)[C@H](Cc1ccc(O)cc1)NC(=O)[C@H](CC(=O)O)NC(=O)[C@H](CO)NC(=O)[C@@H](NC(=O)[C@H](Cc1ccccc1)NC(=O)[C@@H](NC(=O)CNC(=O)[C@H](CCC(=O)O)NC(=O)C(C)(C)NC(=O)[C@H](Cc1ccc(O)cc1)NC)[C@@H](C)O)[C@@H](C)CC)C(=O)N[C@@H](C)C(=O)N[C@@H](CC(C)C)C(=O)N[C@@H](CC(=O)O)C(=O)N[C@@H](CCCNC(=N)N)C(=O)NC(C)(C)C(=O)N[C@@H](C)C(=O)N[C@@H](CCC(N)=O)C(=O)NC(C)(C)C(=O)N[C@@H](CC(=O)O)C(=O)N[C@@H](Cc1ccccc1)C(=O)N[C@H](C(=O)N[C@@H](CC(N)=O)C(=O)N[C@@H](Cc1c[nH]c2ccccc12)C(=O)N[C@@H](CC(C)C)C(=O)N[C@@H](CC(C)C)C(=O)N[C@@H](C)C(=O)N[C@@H](CCCCNC(=O)COCCOCCNC(=O)COCCOCCNC(=O)CC[C@H](NC(=O)CC[C@H](NC(=O)CCCCCCCCCCCCCCCCC(=O)O)C(=O)O)C(=O)O)C(=O)N[C@@H](CCCNC(=N)N)C(=O)NCC(=O)NCC(=O)NCC(=O)NCC(=O)N[C@@H](CO)C(N)=O)C(C)C
[1]
  Human GLP1R cAMP EC50, HEK293T: > 1000 nM
[2]
  Human GIPR cAMP EC50, HEK293T: 0.0006 nM

## [NMeY][Aib]EGTFISDYSI[Aib]LDR[Aib]AQ[Aib]K([2OEGgEgE-C20 diacid])FVNWLLAQKG-OH [Compound No. 65]
[1]
  Human GLP1R cAMP EC50, HEK293T: 40.7 nM
[2]
  Human GIPR cAMP EC50, HEK293T: 0.001 nM

B4: Compound No. 56 (peptide)
peptide: [NMeY][Aib]EGTFISDYSIALDR[Aib]AQ[Aib]DFVNWLLAK(2OEGgEgE‑C18 diacid)RG-OH
modifications: N-terminus assumed
SMILES: CC[C@H](C)[C@H](NC(=O)[C@H](CO)NC(=O)[C@H](Cc1ccc(O)cc1)NC(=O)[C@H](CC(=O)O)NC(=O)[C@H](CO)NC(=O)[C@@H](NC(=O)[C@H](Cc1ccccc1)NC(=O)[C@@H](NC(=O)CNC(=O)[C@H](CCC(=O)O)NC(=O)C(C)(C)NC(=O)[C@H](Cc1ccc(O)cc1)NC)[C@@H](C)O)[C@@H](C)CC)C(=O)N[C@@H](C)C(=O)N[C@@H](CC(C)C)C(=O)N[C@@H](CC(=O)O)C(=O)N[C@@H](CCCNC(=N)N)C(=O)NC(C)(C)C(=O)N[C@@H](C)C(=O)N[C@@H](CCC(N)=O)C(=O)NC(C)(C)C(=O)N[C@@H](CC(=O)O)C(=O)N[C@@H](Cc1ccccc1)C(=O)N[C@H](C(=O)N[C@@H](CC(N)=O)C(=O)N[C@@H](Cc1c[nH]c2ccccc12)C(=O)N[C@@H](CC(C)C)C(=O)N[C@@H](CC(C)C)C(=O)N[C@@H](C)C(=O)N[C@@H](CCCCNC(=O)COCCOCCNC(=O)COCCOCCNC(=O)CC[C@H](NC(=O)CC[C@H](NC(=O)CCCCCCCCCCCCCCCCC(=O)O)C(=O)O)C(=O)O)C(=O)N[C@@H](CCCNC(=N)N)C(=O)NCC(=O)O)C(C)C
[1]
  Human GLP1R cAMP EC50, HEK293T: > 1000 nM
[2]
  Human GIPR cAMP EC50, HEK293T: 0.0006 nM
